In patent US20250027068A1:
Numbering of substitutions follows the chain as printed.

B1: VRT-12 (Fc fusion)
chain: QITSVWTKGVTPLTPEQFRYNNEDVIHAPYLANQGWYDITKTFNGKDNLLCGAATAGNMLHWWFDQNKTEIEAYLKKHPEKQKIIFNNQELFDLKAAIDTKDSQTNSQLFNYFRDKAFPNLSARQLGVMPDLVLDMFINGYYLNVFKTQSTDVNRPYQDKDKRGGIFDAVFTRGDQTTLLTARHDLKNKGLNEISTLIKQELTEGKALALSHTYANVSISHVINLWGADFNAEGNLEAIYVTDSDSNASIGMKKYFVGVNAHGKVAISAKKIEGENIGAQVLGLFTLSSGKDIWQKLSDKTHTCPPCPAPEAAGAPSVFLFPPKPKDTLMISRTPEVTCVVVDVSHEDPEVKFNWYVDGVEVHNAKTKPREEQQNSTYRVVSVLTVLHQDWLNGKEYKCKVSNKALKAPIEKTISKAKGQPREPQVYTLPPSRDELTKNQVSLTCLVKGFYPSDIAVEWESNGQPENNYKTTPPVLDSDGSFFLYSKLTVDKSRWQQGNVFSCSVMHEALHNHYTQKSLSLSPG
B2: VRT-13 (Fc fusion)
chain: QITSVWTKGVTPPTPEQFRYNNEDVFHAPYTAHQGWYDITKTFDGKDNLLCGAATAGNMLHWWFDQNKTEIEAYLSKHPEKQKIIFNNQELFDLKAAIDTKDSQTNSALFNYFRDKAFPNLSARQLGVMPDLVLDMFINGYYLNVFKTQSTDVNRPYQDKDKRGGIFDAVFTRGDQTTLLTARHDLKNKTLNDISTIIKQELTEGRALALSHTYANVSISHVINLWGADFNAEGNLEAIYVTDSDSNASIGMKKYFVGVNASGKVAISAKKIEGENIGAQVLGLFTLSSGKDIWQKLSDKTHTCPPCPAPEAAGAPSVFLFPPKPKDTLMISRTPEVTCVVVDVSHEDPEVKFNWYVDGVEVHNAKTKPREEQQNSTYRVVSVLTVLHQDWLNGKEYKCKVSNKALKAPIEKTISKAKGQPREPQVYTLPPSRDELTKNQVSLTCLVKGFYPSDIAVEWESNGQPENNYKTTPPVLDSDGSFFLYSKLTVDKSRWQQGNVFSCSVMHEALHNHYTQKSLSLSPG
B3: VRT-14 (Fc fusion)
chain: SQTEDSESLQRLRDIEDFQAEKKKQNVVYTKWLDGVDVKDHDFRKIVDGNIAYYATPLLNGRGFYDINKDFNRDSDKCAAAVAANMFHYWLDRNRDNVDRFLRQNPEKHGIIELPDGQLKLSDFLNTYESDDGYRDKSKLFDFISNNFNGPVWTDKLLDNYINGYAYNYKYGRTIEDPTKNTSKINFFKEVFNEKILTNNHSIRNQNEFSVLLSEALYTGKAIGLSYGPAGLRHSLGHIISVWGADLDADGNVVAIYVTDSDDKKLTIGDERVGLKRYKISTDDEGRLRLTAYEETHNTGGQIRGLWTLDTGKQAWADYFDKTEQTGTDQAEQDKTHTCPPCPAPEAAGAPSVFLFPPKPKDTLMISRTPEVTCVVVDVSHEDPEVKFNWYVDGVEVHNAKTKPREEQQNSTYRVVSVLTVLHQDWLNGKEYKCKVSNKALKAPIEKTISKAKGQPREPQVYTLPPSRDELTKNQVSLTCLVKGFYPSDIAVEWESNGQPENNYKTTPPVLDSDGSFFLYSKLTVDKSRWQQGNVFSCSVMHEALHNHYTQKSLSLSPG
B4: VRT-16 (Fc fusion)
chain: VTSVWTKGVTPPANFTQGEDVFHAPYVANQGWYDITKTFNGKDNLLCGAATAGNMLHWWFDQNKDQIKRYLEEHPEKQKINFNGEQLFDVKEAIDTKNHQLDSKLFEYFKEKAFPYLSTKHLGVFPDHVIDMFINGYRLSLTNHGPTPVKEGSKDKRGGIFDAVFTRGVQSKLLTSRHDFKEKNLKEISDLIKKELTEGKALGLSHTYANVRINHVINLWGADFDSNGNLKAIYVTDSDTNASIGMKKYFVGVNSAGKVAISAKEIKEDNIGAQVLGLFTLSTGQDSWNQTNDKTHTCPPCPAPEAAGAPSVFLFPPKPKDTLMISRTPEVTCVVVDVSHEDPEVKFNWYVDGVEVHNAKTKPREEQQNSTYRVVSVLTVLHQDWLNGKEYKCKVSNKALKAPIEKTISKAKGQPREPQVYTLPPSRDELTKNQVSLTCLVKGFYPSDIAVEWESNGQPENNYKTTPPVLDSDGSFFLYSKLTVDKSRWQQGNVFSCSVMHEALHNHYTQKSLSLSPG
B5: VRT-17 (Fc fusion)
chain: VTSVWTKGVTPPAKFTQGEDVFHAPYVANQGWYDITKTFNGKDNLLCGAATAGNMLHWWFDQNKEKIEAYLKKHPDKQKIIFGDQELLDVRKVINTKGDQTNSELFNYFRDKAFPGLSARRIGVFPDLVLDMFINGYYLNVYKTQTTDVNRTYQEKDRRGGIFDAVFTRGVQSKLLTSRHDFKEKNLKEISDLIKKELTEGKALGLSHTYANVRINHVINLWGADFDSNGNLKAIYVTDSDTNASIGMKKYFVGVNSAGKVAISAKEIKEDNIGAQVLGLFTLSTGQDSWNQTNDKTHTCPPCPAPEAAGAPSVFLFPPKPKDTLMISRTPEVTCVVVDVSHEDPEVKFNWYVDGVEVHNAKTKPREEQQNSTYRVVSVLTVLHQDWLNGKEYKCKVSNKALKAPIEKTISKAKGQPREPQVYTLPPSRDELTKNQVSLTCLVKGFYPSDIAVEWESNGQPENNYKTTPPVLDSDGSFFLYSKLTVDKSRWQQGNVFSCSVMHEALHNHYTQKSLSLSPG
B6: VRT-18 (Fc fusion)
chain: QITSVWTKGVTPLTPEQFRYNNEDVIHAPYLAHQGWYDITKAFDGKDNLLCGAATAGNMLHWWFDQNKTEIEAYLSKHPEKQKIIFNNQELFDLKAAIDTKDSQTNSQLFNYFRDKAFPGLSARQLGVFPDLVLDMFINGYYLNVFKTQSTDVNRPYQDKDKRGGIFDAVFTRGVQTTLLTARHDLKNKGLNDISTIIKQELTEGRALALSHTYANVRISHVINLWGADFNAEGNLEAIYVTDSDANASIGMKKYFVGINAHGHVAISAKKIEGENIGAQVLGLFTLSSGKDIWQKLSDKTHTCPPCPAPEAAGAPSVFLFPPKPKDTLMISRTPEVTCVVVDVSHEDPEVKFNWYVDGVEVHNAKTKPREEQQNSTYRVVSVLTVLHQDWLNGKEYKCKVSNKALKAPIEKTISKAKGQPREPQVYTLPPSRDELTKNQVSLTCLVKGFYPSDIAVEWESNGQPENNYKTTPPVLDSDGSFFLYSKLTVDKSRWQQGNVFSCSVMHEALHNHYTQKSLSLSPG
B7: VRT-19 (Fc fusion)
chain: B3 chain with K24M, S75N, R93I, D132H, P178S, G286N, Q314Y
B8: VRT-20 (Fc fusion)
chain: B4 chain with G41R, N83K, N241E, S255K
B9: VRT-21 (Fc fusion)
chain: B5 chain with G41R, N243R, S257A

Biological target: pooled human IgG (human)
Experiment: cell-based or functional assay

Point of comparison: B5, Enzyme Activity Endpoint Assay: Fab′2 0 ng/µL. Against it:
- B1 — the same, 0 ng/µL
- B2 — the same, 0 ng/µL
- B3 — the same, 0 ng/µL
- B4 — the same, 0 ng/µL
- B6 — the same, 0 ng/µL
- B7 — the same, 0 ng/µL
- B8 — the same, 0 ng/µL
- B9 — the same, 0 ng/µL

Point of comparison: B7, Enzyme Activity Endpoint Assay: Fc 54 ng/µL. Against it:
- B1 — higher, 101 ng/µL
- B2 — higher, 97 ng/µL
- B3 — lower, 4 ng/µL
- B4 — higher, 130 ng/µL
- B5 — lower, 5 ng/µL
- B6 — lower, 4 ng/µL
- B8 — lower, 5 ng/µL
- B9 — lower, 6 ng/µL

Point of comparison: B6, Enzyme Activity Endpoint Assay: IgG 995 ng/µL. Against it:
- B1 — lower, 747 ng/µL
- B2 — lower, 814 ng/µL
- B3 — higher, 1020 ng/µL
- B4 — lower, 682 ng/µL
- B5 — higher, 1030 ng/µL
- B7 — higher, 1250 ng/µL
- B8 — lower, 981 ng/µL
- B9 — lower, 949 ng/µL

Point of comparison: B9, Enzyme Activity Endpoint Assay: scIgG 11 ng/µL. Against it:
- B1 — higher, 64 ng/µL
- B2 — higher, 42 ng/µL
- B3 — higher, 22 ng/µL
- B4 — higher, 91 ng/µL
- B5 — higher, 20 ng/µL
- B6 — lower, 9 ng/µL
- B7 — higher, 33 ng/µL
- B8 — higher, 12 ng/µL
